Residue numbers refer to the chain shown, from its start.
What was measured:
[1] = molecular target: T1, anti-HIV-1 V3 antibody 1C10 (0.5γ); assay: sandwich ELISA: Fab #92 coated as capture, 1C10, biotinylated IgG #87 as detection
T1 construct: Used as whole bivalent IgG; also called anti-V3 antibody 1C10; 1C10-biotin

[2] = molecular target: T1, anti-HIV-1 V3 antibody 1C10 (0.5γ); assay: SPR, Biacore T200, biotinylated 1C10 on SA chip, anti-idiotype antibody as analyte
[3] = molecular target: T1, anti-HIV-1 V3 antibody 1C10 (0.5γ); assay: inhibition ELISA: biotinylated 1C10 on NNT20 V3 peptide

T1 sequence (VH, as listed by the source, chain 1 of 2): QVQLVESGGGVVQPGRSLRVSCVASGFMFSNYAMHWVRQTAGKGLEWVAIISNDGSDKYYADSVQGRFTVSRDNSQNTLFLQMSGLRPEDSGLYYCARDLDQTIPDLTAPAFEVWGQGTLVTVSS
T1 sequence (VL, as listed by the source, chain 2 of 2): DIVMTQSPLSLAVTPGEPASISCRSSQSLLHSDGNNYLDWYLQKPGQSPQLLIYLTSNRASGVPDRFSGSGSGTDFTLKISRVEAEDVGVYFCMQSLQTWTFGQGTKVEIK

B1: Fab of anti-1C10 idiotype antibody #92 (Fab, V domains shown)
VH: QVQLQQSGAELAKPGASVKMSCKASGYTFTNYWMHWVKQRPGQGLEWIGFINPNTDYTEYNQKFTDKATLTADKSSNTAYMQLSSLTSEDSALYYCAREDTWFAYWGQGTLVTVSA
VL: DIQMTQSPASLSASVGETVTITCRASENIYSYLAWYQQKQGKSPQLLVYNAKALAEGVPSRFSGSGSGTQFSLKINSLQPEDFGSYYCQHHYRTPYAFGGGTKLEIK
notes: VH cloned into a Fab heavy chain expression vector, co-expressed with the light chain vector, purified on His60 Ni resin; also called Fab#92; #92Fab
B1: binds [1].

B2: anti-1C10 idiotype antibody #87 (IgG) (antibody, V domains shown)
VH: QVQLVETGGGLVRPGNSLKLSCVTSGFTFSTYRMHWLRQPPGKRLEWIAVITVKSDGYGANYAQSLKDRFTISRDDSKSSVFLQMNRLREEDTATYYCSRGPDFYGSTYWYFDVWGAGTT
VL: DIVMTQSPSSLDVSVGEKVSMSCKSSQSLLYRSNQKNYLAWYQQKPGQSPRLLIYWASTRESGVPDRFTGSGSGTDFTLTISSVKAEDLAVYYCQQYYSYSTFGAGTKVELK
notes: Mouse variable regions cloned into human IgG expression vectors (pIgGH, pKVA2); Biotinylated where used as detection antibody; also called clone #87; IgG#87
B2 was tested, and the Kd [2] was 0.0343 nM.

B3: anti-1C10 idiotype antibody #92 (IgG) (antibody, V domains shown)
VH: B1 VH
VL: B1 VL
notes: Mouse variable regions cloned into human IgG expression vectors (pIgGH, pKVA2); also called clone #92; IgG#92
B3: binds [3].

B4: anti-1C10 idiotype antibody #102 (IgG) (antibody, V domains shown)
VH: EVKLLESGGGLVQPGISLKLSCAASGFDFTRDWMSWVRQAPGKGLEWIGEINPDSSAINYTPSLRDKFIISRDNAKNTLYLQMSKVRSEDTALYYCARRGYYGYYLDYWGQGTTLTVSS
VL: B2 VL with D12A, S20T, L30F, Y31F, R51K, R60G, S101P, A105G, V109L, L111I
notes: Mouse variable regions cloned into human IgG expression vectors (pIgGH, pKVA2)
B4: binds [3].

Reference: WO2021065846A1 (dated 2021)
